Results taken from PMC9748336.

Biological target: HA-tagged PP2A catalytic Cα subunit p.Cys196Arg variant (human) (UniProt P67775)
Test: co-IP; HA pull-down: lysates of HEK293T cells transfected with HA-Cα incubated 1 h at 4°C with anti-HA-agarose beads in NENT100 buffer with 1 mg/ml BSA; washes with 300 and 150 mM NaCl; endogenous A subunit detected by anti-A immunoblot, quantified against the anti-HA signal, WT set at 100%

percent decrease of binding against Cα WT: 40%
Substance: endogenous PP2A A subunit (from UniProt P30153 1-589) (natural protein)
